Measured values: patent US20220106596A1, “A METHOD OF GENE EDITING” (University of Washington, priority 2019, published 2022)

Columns and labels:
[1] = test system: HT-1080/neo/HPRT editing lines; assay: neo gene editing (G418 selection) after shRNA inhibition of selected replication fork proteins; assay type: cell-based, human; details: shRNA induced 24 hours with doxycycline (1 μg/ml); AAV-HSN MOI 2×10^4
Experimental: (§1) To determine the effect of shRNA specific for selected replication fork proteins on gene editing, experiments were performed using the HT-1080/neo/HPRT editing lines. Each gene indicated in Table 8 below was inhibited with a shRNA (sequences provided in Table 7 below) expressed from a lentivirus vector.
(§2) HPRT and neo gene editing frequencies were measured by G418 or HAT selection and normalized to a cell that was not treated with a shRNA.
(§3) Cells were first transduced with a lentivirus expressing a shRNA specific for the targeted genes. 2×10^4 HT-1080 cells transduced with the specific shRNAs were then plated in 6-well plates on day 1, and the expression of the shRNA was induced for 24 hours with doxycycline (1 μg/ml). On day 2, cells were transduced with AAV-HSN or AAV-HPe3 at a MOI of 2×10^4. On day 4, the cells were treated with trypsin and 0.1% of the cells were replated without selection in 6-well plates to determine the number of colony forming units. The remainder of the cells were replated in 6-well plates for further analysis of gene editing frequency.
(§4) On day 5, neo gene correction experiments were performed by the addition of G418 (700 ug/ml) to the experimental plates. On day 16, plates were washed with PBS and the colonies were stained with Coomassie brilliant blue G. The percentage of neo gene correction was calculated as the number of G418-resistant CFU per total CFU for each original well. On day 6, HPRT gene correction experiments were performed by adding 1× HAT (hypoxanthine-aminopterin-thymidine medium) to the experimental plates. On day 16, plates were washed with PBS and the colonies were stained with Coomassie brilliant blue G. The percentage of HPRT gene correction was calculated as the number of HAT-resistant CFU per total CFU for each original well.

[2] = test system: HT-1080/neo/HPRT editing lines; assay: HPRT gene editing (HAT selection) after shRNA inhibition of selected replication fork proteins; assay type: cell-based, human; details: shRNA induced 24 hours with doxycycline (1 μg/ml); AAV-HPe3 MOI 2×10^4
Experimental: as §1, §2, §3, §4

| Molecule | G418 (neo) gene editing frequency normalized to a cell not treated with a shRNA [1] | HAT (HPRT) gene editing frequency normalized to a cell not treated with a shRNA [2] |
| --- | --- | --- |
| SH63: shRNA cloned in pTRIPZ (Dharmacon), target gene BLM; SEQ ID NO: 112 (nucleic acid) GTTGACAGTGAGCGAAGGTTATCTGTGCTACAATTGTAGTGAAGCCACAGATGTACAATTGTAGCACAGATAACCTGTGCCTACTGCCTC | 1.99 | 0.92 |
| sh15: shRNA cloned in pTRIPZ (Dharmacon), target gene 2b3, pms2; SEQ ID NO: 103 (nucleic acid) GTTGACAGTGAGCGCCCGTAGTCACTGTATGGAATATAGTGAAGCCACAGATGTATATTCCATACAGTGACTACGGTTGCCTACTGCCTC | 3.88 | 17.59 |
| SH61: shRNA cloned in pTRIPZ (Dharmacon), target gene BLM; SEQ ID NO: 110 (nucleic acid) GTTGACAGTGAGCGAAACCTTCCTATGATATTGATATAGTGAAGCCACAGATGTATATCAATATCATAGGAAGGTTGTGCCTACTGCCTC | 2.64 | 2.82 |
| SH7: shRNA cloned in pTRIPZ (Dharmacon), target gene 1B3, POLE4; SEQ ID NO: 101 (nucleic acid) GTTGACAGTGAGCGCGGAGAGACTTGGATAATGCAATAGTGAAGCCACAGATGTATTGCATTATCCAAGTCTCTCCTTGCCTACTGCCTC | 1.57 | 8.24 |
| SH79: shRNA cloned in pTRIPZ (Dharmacon), target gene POLA1; SEQ ID NO: 113 (nucleic acid, listed as DNA, chemistry not fully specified) GTTGACAGTGAGCGCGCAGATCATGTGTGAGCTAAATAGTGAAGCCACAGATGTATTTAGCTCACACATGATCTGCATGCCTACTGCCTC | 1.24 | 2.46 |
| SH56: shRNA cloned in pTRIPZ (Dharmacon), target gene 12B12, ORC1L; SEQ ID NO: 108 (nucleic acid) GTTGACAGTGAGCGCGCCACGTTTCAACAGATATATTAGTGAAGCCACAGATGTAATATATCTGTTGAAACGTGGCTTGCCTACTGCCTC | 2.07 | 2.11 |
| Sh39: shRNA cloned in pTRIPZ (Dharmacon), target gene BLM; SEQ ID NO: 104 (nucleic acid) GTTGACAGTGAGCGTAAGCAGCGATGTGATTTGCATTAGTGAAGCCACAGATGTAATGCAAATCACATCGCTGCTTATGCCTACTGCCTC | 1.67 | 3.8 |
| SH62: shRNA cloned in pTRIPZ (Dharmacon), target gene BLM; SEQ ID NO: 111 (nucleic acid) GTTGACAGTGAGCGCGGTGTCCATTACTTCAATATTTAGTGAAGCCACAGATGTAAATATTGAAGTAATGGACACCATGCCTACTGCCTC | 2.28 | 2.34 |
| SH60: shRNA cloned in pTRIPZ (Dharmacon), target gene BLM; SEQ ID NO: 109 (nucleic acid) GTTGACAGTGAGCGCGGAGTCTGCGTGCGAGGATTATAGTGAAGCCACAGATGTATAATCCTCGCACGCAGACTCCTTGCCTACTGCCTC | 2.08 | 1.38 |
| Sh40: shRNA cloned in pTRIPZ (Dharmacon), target gene RMI1/BLAP75; SEQ ID NO: 105 (nucleic acid) GTTGACAGTGAGCGTGATCTAGTTACAGCTGAAGCATAGTGAAGCCACAGATGTATGCTTCAGCTGTAACTAGATCATGCCTACTGCCTC | 1.37 | 1.61 |
| SH9: shRNA cloned in pTRIPZ (Dharmacon), target gene 1B5, anapc5; SEQ ID NO: 102 (nucleic acid) GTTGACAGTGAGCGCGCGCATTATCTCAGCTACTTATAGTGAAGCCACAGATGTATAAGTAGCTGAGATAATGCGCTTGCCTACTGCCTC | 2.81 | 29.10 |
| Sh41: shRNA cloned in pTRIPZ (Dharmacon), target gene Topo III alpha; SEQ ID NO: 106 (nucleic acid) GTTGACAGTGAGCGTGGACATTTACTGGCTCATGATTAGTGAAGCCACAGATGTAATCATGAGCCAGTAAATGTCCATGCCTACTGCCTC | 1.42 | 1.66 |
| Sh42: shRNA cloned in pTRIPZ (Dharmacon), target gene 12A5, MEIS2; SEQ ID NO: 107 (nucleic acid) GTTGACAGTGAGCGCGGACTTTATCAGAAACTCAAATAGTGAAGCCACAGATGTATTTGAGTTTCTGATAAAGTCCTTGCCTACTGCCTC | 1.26 | – |
